Test results reported in US20240010750A1 (Bayer, published 2024).
Residue numbers refer to the chain shown, from its start. Where two headings read alike, the source gives them in different places.

T1: human alpha2-Antiplasmin (human, UniProt P08697 40-491)
T1 sequence: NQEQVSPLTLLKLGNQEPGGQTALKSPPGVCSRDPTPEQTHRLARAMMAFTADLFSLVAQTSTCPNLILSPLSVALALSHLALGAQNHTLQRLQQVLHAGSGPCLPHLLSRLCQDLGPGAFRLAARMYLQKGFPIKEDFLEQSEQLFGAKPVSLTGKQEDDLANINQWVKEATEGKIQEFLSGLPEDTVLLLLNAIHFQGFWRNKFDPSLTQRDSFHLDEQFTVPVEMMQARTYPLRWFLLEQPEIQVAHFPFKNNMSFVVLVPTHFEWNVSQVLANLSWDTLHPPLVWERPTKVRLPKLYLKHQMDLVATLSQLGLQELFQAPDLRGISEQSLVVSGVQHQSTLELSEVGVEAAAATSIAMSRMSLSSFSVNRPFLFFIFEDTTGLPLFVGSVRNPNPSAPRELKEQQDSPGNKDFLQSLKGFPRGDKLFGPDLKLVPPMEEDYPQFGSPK

T2: rabbit alpha2-Antiplasmin (rabbit (Oryctolagus cuniculus))
T2 construct: Made in house in HEK293 cells, purified by Ni-IMAC and SEC (a His tag is implied but not described); also called rabbit A2AP; Oryctolagus cuniculus A2AP
T2 chain: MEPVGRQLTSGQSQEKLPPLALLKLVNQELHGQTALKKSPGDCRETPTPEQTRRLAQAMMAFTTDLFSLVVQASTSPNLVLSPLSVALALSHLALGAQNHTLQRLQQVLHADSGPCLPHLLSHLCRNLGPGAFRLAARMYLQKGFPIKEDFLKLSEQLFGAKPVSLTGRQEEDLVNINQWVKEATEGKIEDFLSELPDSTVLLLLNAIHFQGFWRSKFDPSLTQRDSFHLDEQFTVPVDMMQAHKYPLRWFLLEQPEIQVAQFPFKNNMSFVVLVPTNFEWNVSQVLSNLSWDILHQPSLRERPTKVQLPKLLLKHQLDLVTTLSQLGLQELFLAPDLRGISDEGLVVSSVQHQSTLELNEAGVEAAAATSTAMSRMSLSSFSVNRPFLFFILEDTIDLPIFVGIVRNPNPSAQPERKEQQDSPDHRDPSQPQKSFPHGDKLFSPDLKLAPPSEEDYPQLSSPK

T3: cynomolgus alpha2-Antiplasmin (cynomolgus (Macaca fascicularis), UniProt P08697 28-491 (human entry))
T3 construct: Made in house in the same way as the rabbit protein; also called cynomolgus A2AP; Macaca fascicularis A2AP
T3 chain: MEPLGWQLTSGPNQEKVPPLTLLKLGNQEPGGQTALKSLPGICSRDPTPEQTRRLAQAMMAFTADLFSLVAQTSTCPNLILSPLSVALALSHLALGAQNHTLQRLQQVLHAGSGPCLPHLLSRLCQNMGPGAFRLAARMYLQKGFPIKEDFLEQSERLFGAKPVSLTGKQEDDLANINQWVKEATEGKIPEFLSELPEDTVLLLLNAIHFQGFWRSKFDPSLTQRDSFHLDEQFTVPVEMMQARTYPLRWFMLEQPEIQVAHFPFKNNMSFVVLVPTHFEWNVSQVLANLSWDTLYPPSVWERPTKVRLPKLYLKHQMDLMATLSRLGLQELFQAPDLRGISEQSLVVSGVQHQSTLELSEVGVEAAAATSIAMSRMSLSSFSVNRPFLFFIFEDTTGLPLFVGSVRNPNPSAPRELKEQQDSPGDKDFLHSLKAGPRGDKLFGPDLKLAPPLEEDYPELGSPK

B1: TPP-17048 hIgG1 (antibody, V domains shown)
VH: EVQLLESGGGLVQPGGSLRLSCAASGFTFSDYAMSWVRQAPGKGLEWVSAIGTGGSTYYADSVKGRFTISRDNSKNTLYLQMNSLRAEDTAVYYCAREGYDSSGYYHLDYWGQGTLVTVSS
VL: QSVLTQPPSASGTPGQRVTISCTGSSSNIGATYDVHWYQQLPGTAPKLLIYSNNQRPSGVPDRFSGSKSGTSASLAISGLRSEDEADYYCAAWDWSLSGWVFGGGTKLTVLG
notes: Germline variant of TPP-14308
B2: TPP-17053 hIgG1 (antibody, V domains shown)
VH: B1 VH with S30D, T53S
VL: B1 VL
notes: Germline variant of TPP-14308
B3: TPP-17045 hIgG1 (antibody, V domains shown)
VH: B1 VH with S30D, S56G, R97K
VL: B1 VL
notes: Germline variant of TPP-14308

Assays:
human alpha2-Antiplasmin [1] = biological target: T1, human alpha2-Antiplasmin; experiment: cell-based or functional assay
human alpha2-Antiplasmin [2] = biological target: T1, human alpha2-Antiplasmin; experiment: cell-based or functional assay; remark: listed apart in the source
human Plasmin = human Plasmin (human, UniProt P00747 97-580; P00747 581-810, limits assumed); experiment: cell-based or functional assay
Chain of human Plasmin (P00747 97-580 limits assumed, chain 1 of 2): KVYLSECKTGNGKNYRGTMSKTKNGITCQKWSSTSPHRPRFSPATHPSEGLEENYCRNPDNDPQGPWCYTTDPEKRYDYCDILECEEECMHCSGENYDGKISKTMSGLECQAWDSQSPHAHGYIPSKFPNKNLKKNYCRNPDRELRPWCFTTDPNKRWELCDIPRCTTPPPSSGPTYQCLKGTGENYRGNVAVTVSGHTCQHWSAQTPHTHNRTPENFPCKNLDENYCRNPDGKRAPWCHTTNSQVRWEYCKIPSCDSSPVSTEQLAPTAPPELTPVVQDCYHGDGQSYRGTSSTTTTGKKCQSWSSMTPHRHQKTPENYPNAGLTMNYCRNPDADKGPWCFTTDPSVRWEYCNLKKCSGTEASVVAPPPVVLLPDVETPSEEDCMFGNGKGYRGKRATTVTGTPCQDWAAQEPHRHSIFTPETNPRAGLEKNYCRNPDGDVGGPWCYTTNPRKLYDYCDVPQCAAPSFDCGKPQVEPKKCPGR
Chain of human Plasmin (P00747 581-810 limits assumed, chain 2 of 2): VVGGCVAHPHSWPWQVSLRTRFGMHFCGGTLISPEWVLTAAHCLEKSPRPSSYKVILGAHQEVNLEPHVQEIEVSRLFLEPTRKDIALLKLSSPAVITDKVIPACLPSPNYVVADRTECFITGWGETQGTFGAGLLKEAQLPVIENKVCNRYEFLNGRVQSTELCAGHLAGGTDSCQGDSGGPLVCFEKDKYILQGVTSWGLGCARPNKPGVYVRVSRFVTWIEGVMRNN

human alpha2-Antiplasmin [3] = biological target: T1, human alpha2-Antiplasmin; experiment: cell-based or functional assay; remark: listed apart in the source
human alpha2-Antiplasmin [4] = biological target: T1, human alpha2-Antiplasmin; experiment: ELISA (Example 3), human alpha2-Antiplasmin coated, RFU
Protocol: (§1) A standard ELISA format was used for analyzing the binding affinity of Fabs of this invention to human and rabbit alpha-2-Antiplasmin, respectively. Antigens were coated to black 384 well Maxisorp microtiter plates (Nunc; catalogue number 460518), diluted to a concentration of 1 μg/ml in 1× Coating Buffer (Candor Bioscience; catalogue number 121125). Plates were incubated overnight at 4° C. After overnight incubation, plates were washed 2× with 50 μl/well using PBS+0.05% Tween 20. Following this, 50 μl/well of blocking buffer (Smart Block; Candor Bioscience; catalogue number 113500) was added and the plates were incubated for 1 hour at room temperature. Afterwards, plates were washed for 3× using […] PBS+0.05% Tween 20 buffer. Fabs of this invention were added at different concentrations in a final volume of 30 μl/well. Plates were incubated for 1 hour at room temperature. Following this incubation step, plates were washed for 3× using 50 μl/well of a PBS+0.05% Tween 20 buffer. For the detection of bound Fabs and full-length antibodies, the anti-Human Lambda Light Chains (Bound and Free)—Peroxidase antibody (Sigma; catalogue number A5175) was diluted by the factor of 1:10.000 in 10% Blocking Buffer. […]
(§2) For measurement, the Infinite f500 reader (Tecan) was used. Measurement mode: Fluorescence; Top reading; Ex 535 nm; Em 590 nm.

human alpha2-Antiplasmin [5] = biological target: T1, human alpha2-Antiplasmin; experiment: ELISA, coated antigen, quantified unpurified antibody, 1st exp.
human alpha2-Antiplasmin [6] = biological target: T1, human alpha2-Antiplasmin; experiment: ELISA, coated antigen, quantified unpurified antibody, 2nd exp.
human alpha2-Antiplasmin [7] = biological target: T1, human alpha2-Antiplasmin; experiment: SPR Biacore T200, antibody captured on protein G chip, A2AP as analyte, 25 C
Protocol: (§3) Binding assays were performed on a Biacore T200 instrument at 25° C. with a protein G sensor chip and assay buffer HBS-EP+. Antibodies were captured to ˜150 RU and analytes were used at concentrations between 1.56 and 200 nM for full kinetics. As interaction partner, alpha2-Antiplasmin from human, cynomolgus and rabbit was used. Regeneration was performed with glycine-HCl pH 1.5. Kinetic parameters were derived by fitting experimental sensorgrams to a 1:1 Langmuir binding model.

[8] = biological target: T2, rabbit alpha2-Antiplasmin; experiment: as above
Protocol: as §3

[9] = biological target: T3, cynomolgus alpha2-Antiplasmin; experiment: as above
Protocol: as §3

human alpha2-Antiplasmin [10] = biological target: T1, human alpha2-Antiplasmin; experiment: cell-based or functional assay; remark: listed apart in the source
human alpha2-Antiplasmin [11] = biological target: T1, human alpha2-Antiplasmin; experiment: ELISA (Example 3), human alpha2-Antiplasmin coated, RFU; remark: listed apart in the source
Protocol: as §1, with “Buffer. 30 μl/well of this diluted detection antibody was added and plates are incubated for 1 hour at room temperature. Following this incubation step, plates were washed for 3× using 50 μl/well of a PBS+0.05% Tween 20 buffer.” for “Buffer.”
as §2
According to the method described in Example 3, these 12 antibodies were tested for ability to bind human and rabbit alpha2-Antiplasmin in a dose-dependent manner. Data generated were analyzed using the GraphPadPrism software. The binding activities of the antibodies were calculated as EC50 values. […]

human alpha2-Antiplasmin [12] = biological target: T1, human alpha2-Antiplasmin; experiment: ELISA, coated antigen, quantified unpurified antibody, 3rd exp.
Protocol: A standard ELISA format was used for analyzing the binding affinity of Fabs of this invention to human and rabbit alpha-2-Antiplasmin, respectively. Antigens were coated to black 384 well Maxisorp microtiter plates (Nunc; catalogue number 460518), diluted to a concentration of 1 μg/ml in 1× Coating Buffer (Candor Bioscience; catalogue number 121125). Plates were incubated overnight at 4° C. After overnight incubation, plates were washed 2× with 50 μl/well using PBS+0.05% Tween 20. Following this, 50 μl/well of blocking buffer (Smart Block; Candor Bioscience; catalogue number 113500) was added and the plates were incubated for 1 hour at room temperature. Afterwards, plates were washed for 3× using […] PBS+0.05% Tween 20 buffer. Fabs of this invention were added at different concentrations in a final volume of 30 μl/well. Plates were incubated for 1 hour at room temperature. Following this incubation step, plates were washed for 3× using 50 μl/well of a PBS+0.05% Tween 20 buffer. For the detection of bound Fabs and full-length antibodies, the anti-Human Lambda Light Chains (Bound and Free)—Peroxidase antibody (Sigma; catalogue number A5175) was diluted by the factor of 1:10.000 in 10% Blocking Buffer. 30 μl/well of this diluted detection antibody was added and plates are incubated for 1 hour at room temperature. Following this incubation step, plates were washed for 3× using 50 μl/well of a PBS+0.05% Tween 20 buffer. As substrate, a mixture of 30 μl/well of 1:1000 diluted Amplex red (Invitrogen; catalogue number 12222; stock solution 10 mM in DMSO) and 1:10.000 of Hydrogen peroxide (Merck; catalogue number 107209; 30% stock solution) was added and the plates incubated for […] in the dark.
as §2

human alpha2-Antiplasmin [13] = biological target: T1, human alpha2-Antiplasmin; experiment: cell-based or functional assay; remark: listed apart in the source

Binder	IC50, A2AP function blocking assay (Example 10) (human alpha2-Antiplasmin [1]) [nM]	function blocking activity [IC50 M], 1st exp. (human alpha2-Antiplasmin [2]) [nM]	function blocking activity [IC50 M], 2nd exp. (human alpha2-Antiplasmin [2]) [nM]	function blocking activity [IC50 M], 3rd exp. (human alpha2-Antiplasmin [2]) [nM]	IC50 [M], inhibition of plasmin proteolytic activity (human Plasmin) [M]	EC50 (read off the curve); function blocking assay (Example 4), RFU of plasmin substrate cleavage (human alpha2-Antiplasmin [3]) [nM]	EC50 (read off the curve) (human alpha2-Antiplasmin [4]) [nM]	EC50 (human alpha2-Antiplasmin [5]) [nM]	EC50 (human alpha2-Antiplasmin [6]) [nM]	Kd (human alpha2-Antiplasmin [7]) [nM]	Kd [8] [nM]	Kd [9] [nM]	EC50 (read off the curve); function blocking assay (Example 4), RFU of plasmin substrate cleavage (human alpha2-Antiplasmin [10]) [nM]	EC50 (read off the curve) (human alpha2-Antiplasmin [11]) [nM]	EC50 (human alpha2-Antiplasmin [12]) [nM]	EC50 (read off the curve); function blocking assay (Example 4), RFU of plasmin substrate cleavage (human alpha2-Antiplasmin [13]) [nM]
B1	1.2	0.28	0.39	0.3	> 1e-05	~0.3	~0.2	0.18	0.36	7.9	9.7	5.8	–	–	–	–
B2	0.15	0.43	0.65	0.5	> 1e-05	–	–	0.52	0.58	11	28	8.7	~0.4	~0.5	0.63	–
B3	0.14	0.4	0.5	–	> 1e-05	–	~0.08	0.085	0.12	14	49	11	–	–	0.11	~0.4
